Assay results from PMC5662737, “Structural and mechanistic insights into ATRX-dependent and -independent functions of the histone chaperone DAXX” (Nature Communications, 2017).

Assays:
hDAXX 4HB F87A = target: T1, hDAXX 4HB F87A (Homo sapiens); test: ITC
T1 chain: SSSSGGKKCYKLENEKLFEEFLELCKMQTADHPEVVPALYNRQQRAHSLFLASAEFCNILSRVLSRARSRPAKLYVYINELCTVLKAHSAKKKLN

[1] = target: T2, human DAXX four-helix bundle domain (4HB, residues 50–144) (human, UniProt Q9UER7 50-144); test: ITC; 17 injections of 2.2 μl ATRX DBM peptide (1.5 mM) into 200 µl DAXX 4HB or mutants (150 µM); 20 °C; 20 mM Tris pH 7.5, 0.3 M NaCl; single site-binding model; settings: both partners purified
T2 construct: DAXX (death-domain-associated protein), human, N-terminal four-helix bundle, residues 50-144; Expressed and purified 'in a similar way' as the fusion protein (His6-SUMO removed with Ulp1); also called DAXX 4HB; hDAXX 4HB; source: E. coli BL21(DE3)-RIL, purified (Ni-NTA, heparin, Superdex 200); not shown: His6-SUMO, N-terminal, cleaved
T2 sequence (looked up): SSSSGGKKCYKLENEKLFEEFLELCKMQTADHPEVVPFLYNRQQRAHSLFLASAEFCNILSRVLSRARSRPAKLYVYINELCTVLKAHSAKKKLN

[2] = target: T3, human DAXX 4HB F87L (tumor mutation) (human, UniProt Q9UER7 50-144, F87L); test: as above; settings: both partners purified
T3 construct: DAXX, human, four-helix bundle, residues 50-144, with the tumor mutation F87L; also called DAXX F87L; source: E. coli BL21(DE3)-RIL, purified (Ni-NTA, heparin, Superdex 200); not shown: His6-SUMO, N-terminal, cleaved
T3 sequence (looked up): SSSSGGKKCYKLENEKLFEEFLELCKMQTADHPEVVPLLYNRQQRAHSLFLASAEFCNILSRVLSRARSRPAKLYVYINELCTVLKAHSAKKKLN

[3] = target: T4, human DAXX four-helix bundle domain (4HB, residues 50–144) (human, UniProt Q9UER7 50-144); test: ITC
T4 chain: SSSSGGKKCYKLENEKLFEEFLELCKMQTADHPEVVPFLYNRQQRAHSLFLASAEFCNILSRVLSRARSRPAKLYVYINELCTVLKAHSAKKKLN

Row | Binder | Kd (hDAXX 4HB F87A) [µM] | Kd [1] [µM] | Kd [2] [µM] | Kd [3] [µM] | fold weaker binding than wild-type ATRX DBM [1] [fold]
1 | NDPENRIAKKMLLEEIKANLSSDE (peptide, UniProt P46100 1265-1288, looked up, The limits 1265–1288 are printed for the DBM of the fusion construct; also called ATRX DBM; hATRX DBM; source: synthetic peptide (Tufts University Peptide Core Facility)) [human ATRX DAXX-binding motif (DBM) peptide, wild type] | 7.5 | 0.9 | 33.8 |  | 
2 | NDPENRIAKKMLLEEAKANLSSDE (peptide, UniProt P46100 1265-1288, looked up, ATRX, human, DBM, residues 1265-1288, with I1280A; Limits as for m4; also called ATRX I1280A mutant; source: synthetic peptide (Tufts University Peptide Core Facility)) [human ATRX DBM peptide I1280A] |  |  |  | 12.9 | ~14
